One block for each binder: values may come before it.
How the values were obtained:
[1] = biological target: T1, estrogen receptor (ER), full-length (human, UniProt P03372 1-595); test: GST pull-down, GST-TR2 fragment on beads, [35S]-ER
T1 construct: 35S-labeled when in vitro translated for the pull-downs; endogenous in MCF7 cells for the co-immunoprecipitation; also called ERα; pSG5-ER
T1 sequence: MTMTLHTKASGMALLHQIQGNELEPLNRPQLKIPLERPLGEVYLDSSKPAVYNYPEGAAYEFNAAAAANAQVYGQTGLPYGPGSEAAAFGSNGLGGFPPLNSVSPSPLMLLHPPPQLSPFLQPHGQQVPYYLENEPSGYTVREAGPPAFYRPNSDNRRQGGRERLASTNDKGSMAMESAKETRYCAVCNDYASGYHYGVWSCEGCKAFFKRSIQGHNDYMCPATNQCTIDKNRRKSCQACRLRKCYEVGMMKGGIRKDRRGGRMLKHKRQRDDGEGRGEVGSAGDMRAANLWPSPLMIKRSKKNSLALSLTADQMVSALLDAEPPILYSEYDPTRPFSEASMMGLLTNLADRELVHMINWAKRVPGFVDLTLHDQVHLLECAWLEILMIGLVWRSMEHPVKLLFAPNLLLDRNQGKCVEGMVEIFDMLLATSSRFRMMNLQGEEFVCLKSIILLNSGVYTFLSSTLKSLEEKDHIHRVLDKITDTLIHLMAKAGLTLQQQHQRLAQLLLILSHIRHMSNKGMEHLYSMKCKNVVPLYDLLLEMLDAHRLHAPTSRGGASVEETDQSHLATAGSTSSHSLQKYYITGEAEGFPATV

[2] = biological target: T2, GST-TR4 fusion protein (human, UniProt P49116 1-596); test: GST pull-down, GST-TR4 on beads, 35S-labeled RXRα
T2 construct: also called pGEX-3X-TR4
T2 sequence: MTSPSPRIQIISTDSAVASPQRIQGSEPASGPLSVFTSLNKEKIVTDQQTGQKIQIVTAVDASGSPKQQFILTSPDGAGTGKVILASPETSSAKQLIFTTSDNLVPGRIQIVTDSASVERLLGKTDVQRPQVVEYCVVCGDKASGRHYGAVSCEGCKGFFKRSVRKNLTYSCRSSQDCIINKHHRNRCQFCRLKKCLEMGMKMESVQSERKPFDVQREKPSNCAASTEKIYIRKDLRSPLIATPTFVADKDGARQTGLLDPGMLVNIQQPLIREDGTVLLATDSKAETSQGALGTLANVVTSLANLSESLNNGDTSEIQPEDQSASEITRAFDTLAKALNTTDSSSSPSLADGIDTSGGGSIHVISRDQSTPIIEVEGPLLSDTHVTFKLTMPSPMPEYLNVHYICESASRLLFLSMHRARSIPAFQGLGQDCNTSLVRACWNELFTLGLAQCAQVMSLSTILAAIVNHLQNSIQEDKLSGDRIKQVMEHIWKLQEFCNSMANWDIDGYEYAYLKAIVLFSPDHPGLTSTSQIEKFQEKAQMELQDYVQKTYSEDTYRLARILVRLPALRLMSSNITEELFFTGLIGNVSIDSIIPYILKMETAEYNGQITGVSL

[3] = biological target: T3, TR4 orphan receptor (TR4), full-length (human, UniProt P49116 1-596); test: Table 4, summary of interactions tested; assay not given
T3 construct: Full-length TR4; 35S-labeled when in vitro translated, expressed from plasmids in the cell assays; also called pCMX-TR4; pCMV-TR4
T3 sequence: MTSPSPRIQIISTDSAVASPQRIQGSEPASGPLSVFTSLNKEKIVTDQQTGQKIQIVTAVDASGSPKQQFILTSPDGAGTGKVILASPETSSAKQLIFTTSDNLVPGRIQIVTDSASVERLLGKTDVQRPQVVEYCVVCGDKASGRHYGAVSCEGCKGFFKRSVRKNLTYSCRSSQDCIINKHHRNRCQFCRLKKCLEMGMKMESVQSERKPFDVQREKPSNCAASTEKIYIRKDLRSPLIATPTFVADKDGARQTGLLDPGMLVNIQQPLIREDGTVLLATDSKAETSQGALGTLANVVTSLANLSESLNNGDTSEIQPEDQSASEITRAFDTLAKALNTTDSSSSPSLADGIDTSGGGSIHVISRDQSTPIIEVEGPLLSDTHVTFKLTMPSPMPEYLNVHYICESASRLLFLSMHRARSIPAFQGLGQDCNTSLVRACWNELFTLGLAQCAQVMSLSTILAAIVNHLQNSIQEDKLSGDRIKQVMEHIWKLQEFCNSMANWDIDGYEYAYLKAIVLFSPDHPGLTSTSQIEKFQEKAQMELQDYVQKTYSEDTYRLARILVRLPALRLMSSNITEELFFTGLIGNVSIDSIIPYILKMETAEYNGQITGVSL

[4] = biological target: T4, TR4 LBD (row label of Table 4) (human, UniProt P49116 205-596); test: as above
T4 construct: not shown: Fusion partner: GST in the pull-down with ER, GAL4-DBD in the hybrid assays with AR
T4 sequence: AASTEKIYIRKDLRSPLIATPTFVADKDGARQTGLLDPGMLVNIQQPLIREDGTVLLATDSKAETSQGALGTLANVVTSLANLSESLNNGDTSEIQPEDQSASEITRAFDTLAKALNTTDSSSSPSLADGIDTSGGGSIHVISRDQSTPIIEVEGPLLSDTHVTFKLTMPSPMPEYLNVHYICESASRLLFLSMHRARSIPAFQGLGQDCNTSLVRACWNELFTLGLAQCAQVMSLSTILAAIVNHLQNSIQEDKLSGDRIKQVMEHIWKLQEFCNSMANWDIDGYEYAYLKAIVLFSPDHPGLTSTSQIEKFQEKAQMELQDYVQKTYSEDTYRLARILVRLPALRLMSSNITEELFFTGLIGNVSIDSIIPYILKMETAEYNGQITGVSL

binding result [1]: no binding
B1: GST-TR2-#1 (N-terminus, aa 1-112 of TR2) (other)
chain: MATIEEIAHQIIEQQMGEIVTEQQTGQKIQIVTALDHNTQGKQFILTNHDGSTPSKVILARQDSTPGKVFLTTPDAAGVNQLFFTTPDLSAQHLQLLTDNSPDQGPNKVFDL
notes: also called pGEX-KG-TR2-#1; not shown: GST carrier of pGEX-KG and its linker

binding result [2]: no binding
B2: retinoid X receptor alpha (RXRα) (receptor, UniProt P19793 1-462, looked up)
chain: MDTKHFLPLDFSTQVNSSLTSPTGRGSMAAPSLHPSLGPGIGSPGQLHSPISTLSSPINGMGPPFSVISSPMGPHSMSVPTTPTLGFSTGSPQLSSPMNPVSSSEDIKPPLGLNGVLKVPAHPSGNMASFTKHICAICGDRSSGKHYGVYSCEGCKGFFKRTVRKDLTYTCRDNKDCLIDKRQRNRCQYCRYQKCLAMGMKREAVQEERQRGKDRNENEVESTSSANEDMPVERILEAELAVEPKTETYVEANMGLNPSSPNDPVTNICQAADKQLFTLVEWAKRIPHFSELPLDDQVILLRAGWNELLIASFSHRSIAVKDGILLATGLHVHRNSAHSAGVGAIFDRVLTELVSKMRDMQMDKTELGCLRAIVLFNPDSKGLSNPAEVEALREKVYASLEAYCKHKYPEQPGRFAKLLLRLPALRSIGLKCLEHLFFFKLIGDTPIDTFLMEMLEAPHQMT
notes: 35S-methionine-labeled, in vitro translated; also called RXRa; RXRA

binding result [3]: binds
binding result [4]: binds
B3: ER LBD 282-595 (column label of Table 4) (receptor, not shown: large carriers)
chain: SAGDMRAANLWPSPLMIKRSKKNSLALSLTADQMVSALLDAEPPILYSEYDPTRPFSEASMMGLLTNLADRELVHMINWAKRVPGFVDLTLHDQVHLLECAWLEILMIGLVWRSMEHPVKLLFAPNLLLDRNQGKCVEGMVEIFDMLLATSSRFRMMNLQGEEFVCLKSIILLNSGVYTFLSSTLKSLEEKDHIHRVLDKITDTLIHLMAKAGLTLQQQHQRLAQLLLILSHIRHMSNKGMEHLYSMKCKNVVPLYDLLLEMLDAHRLHAPTSRGGASVEETDQSHLATAGSTSSHSLQKYYITGEAEGFPATV
